59 variants from the MegaScale stability set (Tsuboyama et al. 2023) can be followed below.

B1: HEEH_KT_rd6_0007 (parent)
chain: SIEEEIKKAEEAKEKGKTFIHGDFVATTEELLDELLKRLRKKL

In the data set the parent is B1. Kind of data set: folding stability dG (cDNA display proteolysis); higher = more stable. To be noted: PBS, room temperature.
SIEEYIKKAEEAKEKGKTFIHGDFVATTEELLDELLKRLRKKL: the “folding stability dG” value was 1.56 kcal/mol.

As for SIEEEIKKAYEAKEKGKTFIHGDFVATTEELLDELLKRLRKKL, the “folding stability dG” value is 1 kcal/mol.

Take SIEEEIKKAFEAKEKGKTFIHGDFVATTEELLDELLKRLRKKL: the “folding stability dG” value was 1.07 kcal/mol.

For SIEEEIKKAKEAKEKGKTFIHGDFVATTEELLDELLKRLRKKL, the “folding stability dG” value came to 1.04 kcal/mol.

For SIEEEIKKALEAKEKGKTFIHGDFVATTEELLDELLKRLRKKL, the “folding stability dG” value came to 1.58 kcal/mol.

With SIEEEIKKAQEAKEKGKTFIHGDFVATTEELLDELLKRLRKKL, the “folding stability dG” value amounted to 1.2 kcal/mol.

In the case of SIEEEIKKAMEAKEKGKTFIHGDFVATTEELLDELLKRLRKKL, the “folding stability dG” value was 1.44 kcal/mol.

In the case of SIEEEIKKATEAKEKGKTFIHGDFVATTEELLDELLKRLRKKL, the “folding stability dG” value turned out to be 1.06 kcal/mol.

As for SIEEEIKKAVEAKEKGKTFIHGDFVATTEELLDELLKRLRKKL, the “folding stability dG” value worked out at 1.17 kcal/mol.

With SIEEEIKKASEAKEKGKTFIHGDFVATTEELLDELLKRLRKKL, the “folding stability dG” value is 0.844 kcal/mol.

With SIEEEIKKAREAKEKGKTFIHGDFVATTEELLDELLKRLRKKL, the “folding stability dG” value worked out at 1.02 kcal/mol.

SIEEEIKKANEAKEKGKTFIHGDFVATTEELLDELLKRLRKKL: the “folding stability dG” value came to 0.992 kcal/mol.

With SIEEEIKKAIEAKEKGKTFIHGDFVATTEELLDELLKRLRKKL, the “folding stability dG” value was determined as 1.32 kcal/mol.

Regarding SIEEEIKKADEAKEKGKTFIHGDFVATTEELLDELLKRLRKKL, the “folding stability dG” value amounted to 0.699 kcal/mol.

On to SIEEEIKKAWEAKEKGKTFIHGDFVATTEELLDELLKRLRKKL, for which the “folding stability dG” value worked out at 1.06 kcal/mol.

Take SIEEEIKKAPEAKEKGKTFIHGDFVATTEELLDELLKRLRKKL: the “folding stability dG” value is 0.607 kcal/mol.

Turning to SIEEEIKKACEAKEKGKTFIHGDFVATTEELLDELLKRLRKKL, the “folding stability dG” value turned out to be 1.49 kcal/mol.

As to SIEEEIKKAHEAKEKGKTFIHGDFVATTEELLDELLKRLRKKL, the “folding stability dG” value worked out at 0.9 kcal/mol.

As for SIEEEIKKAAEAKEKGKTFIHGDFVATTEELLDELLKRLRKKL, the “folding stability dG” value turned out to be 0.805 kcal/mol.

Take SIEEEIKKAGEAKEKGKTFIHGDFVATTEELLDELLKRLRKKL: the “folding stability dG” value came out at 0.706 kcal/mol.

As to SIEEEIDKAEEAKEKGKTFIHGDFVATTEELLDELLKRLRKKL, the “folding stability dG” value is 0.626 kcal/mol.

Regarding SIEEEISKAEEAKEKGKTFIHGDFVATTEELLDELLKRLRKKL, the “folding stability dG” value is 0.891 kcal/mol.

In the case of SIEEEIMKAEEAKEKGKTFIHGDFVATTEELLDELLKRLRKKL, the “folding stability dG” value stood at 1.16 kcal/mol.

Take SIEEEIPKAEEAKEKGKTFIHGDFVATTEELLDELLKRLRKKL: the “folding stability dG” value is 0.656 kcal/mol.

Regarding SIEEEILKAEEAKEKGKTFIHGDFVATTEELLDELLKRLRKKL, the “folding stability dG” value worked out at 1.14 kcal/mol.

For the variant SIEEEIGKAEEAKEKGKTFIHGDFVATTEELLDELLKRLRKKL, the “folding stability dG” value was 0.824 kcal/mol.

As for SIEEEIHKAEEAKEKGKTFIHGDFVATTEELLDELLKRLRKKL, the “folding stability dG” value turned out to be 1.06 kcal/mol.

In the case of SIEEEIRKAEEAKEKGKTFIHGDFVATTEELLDELLKRLRKKL, the “folding stability dG” value turned out to be 1.6 kcal/mol.

For SIEEEIAKAEEAKEKGKTFIHGDFVATTEELLDELLKRLRKKL, the “folding stability dG” value worked out at 1.31 kcal/mol.

As to SIEEEIIKAEEAKEKGKTFIHGDFVATTEELLDELLKRLRKKL, the “folding stability dG” value stood at 1.01 kcal/mol.

Turning to SIEEEIYKAEEAKEKGKTFIHGDFVATTEELLDELLKRLRKKL, the “folding stability dG” value stood at 0.923 kcal/mol.

In the case of SIEEEINKAEEAKEKGKTFIHGDFVATTEELLDELLKRLRKKL, the “folding stability dG” value was determined as 0.942 kcal/mol.

Take SIEEEIVKAEEAKEKGKTFIHGDFVATTEELLDELLKRLRKKL: the “folding stability dG” value turned out to be 0.878 kcal/mol.

For the variant SIEEEIFKAEEAKEKGKTFIHGDFVATTEELLDELLKRLRKKL, the “folding stability dG” value was found to be 0.95 kcal/mol.

Consider SIEEEICKAEEAKEKGKTFIHGDFVATTEELLDELLKRLRKKL, for which the “folding stability dG” value was found to be 1.38 kcal/mol.

For SIEEEIEKAEEAKEKGKTFIHGDFVATTEELLDELLKRLRKKL, the “folding stability dG” value came out at 0.935 kcal/mol.

On to SIEEEIQKAEEAKEKGKTFIHGDFVATTEELLDELLKRLRKKL, for which the “folding stability dG” value is 1.25 kcal/mol.

On to SIEEEITKAEEAKEKGKTFIHGDFVATTEELLDELLKRLRKKL, for which the “folding stability dG” value was found to be 0.994 kcal/mol.

SIEEEIWKAEEAKEKGKTFIHGDFVATTEELLDELLKRLRKKL: the “folding stability dG” value was determined as 0.964 kcal/mol.

With SIEEEIKIAEEAKEKGKTFIHGDFVATTEELLDELLKRLRKKL, the “folding stability dG” value was 0.785 kcal/mol.

Take SIEEEIKWAEEAKEKGKTFIHGDFVATTEELLDELLKRLRKKL: the “folding stability dG” value came to 1.02 kcal/mol.

As to SIEEEIKHAEEAKEKGKTFIHGDFVATTEELLDELLKRLRKKL, the “folding stability dG” value came out at 0.921 kcal/mol.

For SIEEEIKQAEEAKEKGKTFIHGDFVATTEELLDELLKRLRKKL, the “folding stability dG” value was 1.22 kcal/mol.

For SIEEEIKPAEEAKEKGKTFIHGDFVATTEELLDELLKRLRKKL, the “folding stability dG” value was 0.542 kcal/mol.

With SIEEEIKLAEEAKEKGKTFIHGDFVATTEELLDELLKRLRKKL, the “folding stability dG” value is 1.23 kcal/mol.

For SIEEEIKTAEEAKEKGKTFIHGDFVATTEELLDELLKRLRKKL, the “folding stability dG” value was 0.724 kcal/mol.

Turning to SIEEEIKGAEEAKEKGKTFIHGDFVATTEELLDELLKRLRKKL, the “folding stability dG” value was determined as 0.922 kcal/mol.

Regarding SIEEEIKNAEEAKEKGKTFIHGDFVATTEELLDELLKRLRKKL, the “folding stability dG” value turned out to be 0.961 kcal/mol.

For SIEEEIKVAEEAKEKGKTFIHGDFVATTEELLDELLKRLRKKL, the “folding stability dG” value stood at 0.672 kcal/mol.

As for SIEEEIKSAEEAKEKGKTFIHGDFVATTEELLDELLKRLRKKL, the “folding stability dG” value amounted to 0.904 kcal/mol.

For the variant SIEEEIKRAEEAKEKGKTFIHGDFVATTEELLDELLKRLRKKL, the “folding stability dG” value is 1.42 kcal/mol.

On to SIEEEIKMAEEAKEKGKTFIHGDFVATTEELLDELLKRLRKKL, for which the “folding stability dG” value amounted to 1.26 kcal/mol.

In the case of SIEEEIKFAEEAKEKGKTFIHGDFVATTEELLDELLKRLRKKL, the “folding stability dG” value was 0.758 kcal/mol.

As to SIEEEIKDAEEAKEKGKTFIHGDFVATTEELLDELLKRLRKKL, the “folding stability dG” value is 0.721 kcal/mol.

As to SIEEEIKEAEEAKEKGKTFIHGDFVATTEELLDELLKRLRKKL, the “folding stability dG” value turned out to be 0.75 kcal/mol.

On to SIEEEIKAAEEAKEKGKTFIHGDFVATTEELLDELLKRLRKKL, for which the “folding stability dG” value is 1.21 kcal/mol.

As for SIEEEIKYAEEAKEKGKTFIHGDFVATTEELLDELLKRLRKKL, the “folding stability dG” value was 0.777 kcal/mol.

SIEEEIKKSEEAKEKGKTFIHGDFVATTEELLDELLKRLRKKL: the “folding stability dG” value worked out at 0.634 kcal/mol.

Consider SIEEEIKKKEEAKEKGKTFIHGDFVATTEELLDELLKRLRKKL, for which the “folding stability dG” value amounted to 0.705 kcal/mol.
